Measured values: US20250376535A1 (BEIJING STARMAB BIOMED TECHNOLOGY, published 2025)

Assays:
EGFR Fc [1] = target: T1, EGFR Fc (human, UniProt P00533 25-645); assay: ELISA, EGFR Fc coated
T1 construct: also called EGFR-hFc; recombinant human EGFR-Fc
Procedure: (§1) After four rounds of washing with PBST, the plate was incubated with detecting antibody anti-his-HRP (1:4000 dilution) 100 μl per well for one hour with shaking at 60 rpm. The plate was developed with 100 μL of TMB per well in the dark and then stopped by 50 μL of stop solution per well. […] Data was analyzed using GraphPad Prisma 9.1.

[2] = target: T2, EGFR (recombinant human, BLI antigen) (human, UniProt P00533 25-645); assay: BLI (Octet) as in Example 1
T2 construct: also called rh-EGFR; human EGFR

EGFR Fc [3] = target: T1, EGFR Fc; assay: ELISA, EGFR Fc coated, VHH at 2 nM
Procedure: as §1

EGFR Fc [4] = target: T1, EGFR Fc; assay: ELISA, EGFR Fc coated, VHH at 10 nM
Procedure: as §1

EGFR Fc [5] = target: T1, EGFR Fc; assay: ELISA, EGFR Fc coated, VHH at 50 nM
Procedure: as §1

EGFR Fc [6] = target: T1, EGFR Fc; assay: ELISA, EGFR Fc coated, VHH at 0.4 nM
Procedure: as §1

EGFR Fc [7] = target: T1, EGFR Fc; assay: ELISA, EGFR Fc coated, VHH at 500 nM
Procedure: as §1

EGFR Fc [8] = target: T1, EGFR Fc; assay: ELISA, EGFR Fc coated, VHH at 0.08 nM
Procedure: as §1

EGFR Fc [9] = target: T1, EGFR Fc; assay: ELISA, EGFR Fc coated, VHH at 0.016 nM
Procedure: as §1

EGFR Fc [10] = target: T1, EGFR Fc; assay: ELISA, EGFR Fc coated, VHH at 0.0032 nM
Procedure: as §1

EGFR Fc [11] = target: T1, EGFR Fc; assay: blocking ELISA, EGFR-hFc + VHH at 0 nM on coated EGF-mFc
Procedure: (§2) After incubation at 4° C. overnight, the plate was washed four times of PBST and blocked with 200 μl per well of 2% BSA for one hour at room temperature. […] The plate was washed twice with PBST, and the pre-mixed samples were added to the 96-well plate shaking at 60 rpm for one hour at room temperature. After four washes of PBST, the plate was incubated with detecting antibody anti-his-HRP (1:4000 dilution) 100 μl per well for one hour with shaking at 60 rpm. The plate was washed with four times of PBST and added 100 μl per well of substrate TMB followed by 50 μl of stop solution.

EGFR Fc [12] = target: T1, EGFR Fc; assay: blocking ELISA, EGFR-hFc + VHH at 8 nM on coated EGF-mFc
Procedure: as §2

EGFR Fc [13] = target: T1, EGFR Fc; assay: blocking ELISA, EGFR-hFc + VHH at 40 nM on coated EGF-mFc
Procedure: as §2

EGFR Fc [14] = target: T1, EGFR Fc; assay: blocking ELISA, EGFR-hFc + VHH at 1.6 nM on coated EGF-mFc
Procedure: as §2

EGFR Fc [15] = target: T1, EGFR Fc; assay: blocking ELISA, EGFR-hFc + VHH at 200 nM on coated EGF-mFc
Procedure: as §2

EGFR Fc [16] = target: T1, EGFR Fc; assay: blocking ELISA, EGFR-hFc + VHH at 0.32 nM on coated EGF-mFc
Procedure: as §2

EGFR Fc [17] = target: T1, EGFR Fc; assay: blocking ELISA, EGFR-hFc + VHH at 1000 nM on coated EGF-mFc
Procedure: as §2

EGFR Fc [18] = target: T1, EGFR Fc; assay: blocking ELISA, EGFR-hFc + VHH at 0.064 nM on coated EGF-mFc
Procedure: as §2

[19] = target: T2, EGFR (recombinant human, BLI antigen); assay: BLI (Octet) as in Example 1; printed under the head Kdis(1/s), read as kon
[20] = target: T2, EGFR (recombinant human, BLI antigen); assay: BLI (Octet) as in Example 1; printed under the head Kon(1/Ms), read as koff
human serum albumin = target: T3, human serum albumin (human, UniProt P02768 25-609); assay: BLI (Gator), His-tagged VHH on anti-His sensor, HSA 100 nM in solution
T3 construct: also called HSA
Procedure: (§3) Kinetic binding analysis of MSA VHHs were performed with Gator Prime system equipped with analyze software. […] The experiments were done at 30° C. Prior to analysis, sensors were socked in Q buffer for 600 sec with shaking at 1000 rpm, and then 2 μM of HIS tagged MSA VHHs were loaded to Anti-His sensors with shaking at 400 rpm for 120 sec. Loaded sensors were transferred into Q buffer for 60 sec. Association of HSA or MSA at 100 nM was initiated and monitored for 120-180 sec with shaking at 1000 rpm, and finally dissociation in Q buffer for 120-180 sec with 1000 rpm shaking. Software V2.0 (Gator Bio) was used for data analysis. The on-rate (Kₒₙ) and off-rate (Kd) were determined by fitting of the association and dissociation phases of each sample. The mathematical model used assumes a 1:1 stoichiometry, fitting only one analyte in solution binding to one binding site on the surface. The equilibrium dissociation constant (KD), a measure for affinity, was then calculated as the ratio of Kd and Kₒₙ.

murine serum albumin = target: T4, murine serum albumin (murine, UniProt P07724 25-608); assay: BLI (Gator), His-tagged VHH on anti-His sensor, murine serum albumin 100 nM in solution
T4 construct: As antigen 'MSA' means murine serum albumin; the VHHs also carry the label MSA; also called MSA
Procedure: as §3

| Binder | EC50 (EGFR Fc [1]) [nM] | Kd [2] [nM] | OD450 (EGFR Fc [3]) | OD450 (EGFR Fc [4]) | OD450 (EGFR Fc [5]) | OD450 (EGFR Fc [6]) | OD450 (EGFR Fc [7]) | OD450 (EGFR Fc [8]) | OD450 (EGFR Fc [9]) | OD450 (EGFR Fc [10]) | OD450 (EGFR Fc [11]) | OD450 (EGFR Fc [12]) | OD450 (EGFR Fc [13]) | OD450 (EGFR Fc [14]) | OD450 (EGFR Fc [15]) | OD450 (EGFR Fc [16]) | OD450 (EGFR Fc [17]) | OD450 (EGFR Fc [18]) | kon [19] [M⁻¹ s⁻¹] | koff [20] [s⁻¹] | other results |
| --- | --- | --- | --- | --- | --- | --- | --- | --- | --- | --- | --- | --- | --- | --- | --- | --- | --- | --- | --- | --- | --- |
| pgEG-SX3 (VHH, not shown: small tags and cut ends) VHH: QVQLVESGGGLVQAGGSLRLSCVVYGSIFASTTMGWYRQAPGKQRELVATVYQSGTSVYADSVKGRFTASRDNAKKTVYLQMNSLKPEDTAVYYCHPRATDYWGRGTQVTVSS | 0.382 | 0.602 | 0.843 | 0.994 | 1.21 | 0.762 | 1.47 | 0.373 | 0.134 | 0.086 | 1.06 | 0.562 | 0.482 | 0.723 | 0.382 | 0.806 | 0.336 | 0.979 | 457000 | 0.000275 |  |
| pgEG5 (VHH, not shown: small tags and cut ends) VHH: QVQLVESGGGLVQPGGSLRLSCTASHNIFSDNAMAWSRQAPGAQRELVARIATGGNTYYPDSVKGRFTISRDNAKNTVYLQMNNLTPDDTAVYYCYAERWTGLEYSRTYWGQGTQVTVSS | 0.426 | 10.8 | 2.23 | 2.35 | 2.33 | 1.2 | 2.52 | 0.34 | 0.147 | 0.119 | 1.2 | 1.07 | 1.11 | 1.18 | 1.2 | 1.16 | 1.22 | 1.15 |  |  | koff [2]: 0.00134 s⁻¹; kon [2]: 124000 M⁻¹ s⁻¹ |
| Humanized MSA4-1 (VHH, Humanization of MSA4 based on human germline IGHV3-23*04; also called hMSA4-1; not shown: His tag (BLI used HIS tagged MSA VHHs)) VHH: EVQLVESGGGLVQPGGSLRLSCAASGRTDSAYRMGWFRQAPGKEREFVSAINWSDGRTVYLDSVKGRFTISRDNAKNTLYLQMNSLRAEDTAVYYCAADPDSRLYYTVPQNYDYWGQGTQVTVSS |  |  |  |  |  |  |  |  |  |  |  |  |  |  |  |  |  |  |  |  | Kd (human serum albumin): 5.38 nM; koff (human serum albumin): 0.000545 s⁻¹; kon (human serum albumin): 101000 M⁻¹ s⁻¹; Kd (murine serum albumin): 5.58 nM; koff (murine serum albumin): 0.000678 s⁻¹; kon (murine serum albumin): 121000 M⁻¹ s⁻¹ |

The next lines start with results.

| EC50 (EGFR Fc [1]) [nM] | Kd [2] [nM] | OD450 (EGFR Fc [3]) | OD450 (EGFR Fc [4]) | OD450 (EGFR Fc [5]) | OD450 (EGFR Fc [6]) | OD450 (EGFR Fc [7]) | OD450 (EGFR Fc [8]) | OD450 (EGFR Fc [9]) | OD450 (EGFR Fc [10]) | OD450 (EGFR Fc [11]) | OD450 (EGFR Fc [12]) | OD450 (EGFR Fc [13]) | OD450 (EGFR Fc [14]) | OD450 (EGFR Fc [15]) | OD450 (EGFR Fc [16]) | OD450 (EGFR Fc [17]) | OD450 (EGFR Fc [18]) | kon [19] [M⁻¹ s⁻¹] | koff [20] [s⁻¹] | Binder | other results |
| --- | --- | --- | --- | --- | --- | --- | --- | --- | --- | --- | --- | --- | --- | --- | --- | --- | --- | --- | --- | --- | --- |
| 0.0072 | 0.464 | 1.88 | 1.94 | 1.78 | 1.72 | 2.16 | 1.43 | 0.871 | 0.304 | 1.07 | 0.736 | 0.801 | 0.864 | 0.903 | 0.955 | 0.96 | 0.983 | 602000 | 0.00028 | pgEG-SX22 (VHH, not shown: small tags and cut ends) VHH: QVQLVESGGGLVQAGGSLRVSCAVSGGALSAYAMAWFRQAPGKEREFVAGLNWGGDETYYADSAKGRFTISKDNAKNTVSLQMNSLEPEDTAVYYCGGRPGPLLSRATGYKYWGQGTQVTVSS |  |
| 0.022 | 1.87 | 2.79 | 2.54 | 2.46 | 2.67 | 2.61 | 2.37 | 1.33 | 0.648 | 1.11 | 0.649 | 0.433 | 0.919 | 0.158 | 1.08 | 0.15 | 1.14 | 381000 | 0.000715 | pgEG-SX57 (VHH, not shown: small tags and cut ends) VHH: QVQLVESGGGLVQAGGSLRLSCAGARSIFSIKPMTWYRQAPGKERELVAWFTSGDSPNYADSVKGRFTISRDSAKNTVYLQMNNLKPEDTAVYYCNAVPPLGRWGQGTLVTVSS |  |
| 0.12 | 0.798 | 1.83 | 1 | 1.15 | 1.16 | 1.37 | 0.496 | 0.139 | 0.082 | 1.04 | 0.757 | 0.606 | 0.928 | 0.668 | 1.07 | 0.646 | 0.956 | 500000 | 0.000399 | pgEG-SX6 (VHH, not shown: small tags and cut ends) VHH: QVQLVESGGGTVQAGGSLRLSCVASGMREDIFDMGWYRQAPGLQRELVATITSGGSTDYADSVKGRFTISRDNTENTLNLQMNMLKPEDTAVYYCNALYFPPSGGRSSEFWGQGTLVTVSS |  |
| 0.769 | 1.13 | 0.626 | 0.715 | 0.786 | 0.461 | 0.963 | 0.25 | 0.144 | 0.121 | 1.14 | 0.633 | 0.414 | 0.922 | 0.147 | 1.03 | 0.151 | 1.06 | 358000 | 0.000406 | pgEG-SX40 (VHH, not shown: small tags and cut ends) VHH: QVQLVESGGGLVQAGGSLRLSCTGSGIRFSFYTLGWYRQAPGKQRELVAEIYSSDNAKYEDSVKGRFAISRDNAKNSVSLQMNSLKPEDTAVYYCNVRATDYWGPGTQVTVSS |  |
